Assay: soluble on expression in E. coli; label from the status in PepcDB or PDB records

Sequence | soluble on expression in E. coli
MATSSSAFDDELPMEEGMPELLDDEDVPSTLPSLLEQNLDTAPKGDEFKLVKRKRKSGNAIDVVMEDVSQVDEDATADTADDSTGPKSSKRTKGVKGESRVVPVPKHRYTPLKDNWVNIFTPIVKNLGLQVRFNLKKRQVEIRNPVDREDTTDLQKATDFVRAFILGFEVNDAIALIRLDHLFLETFEVADVKHSLKGDHVSRAIGRIAGKDGRTKLVIENTTKTRIVVANTKIHILGAYQNLKLARNAVCSLILGSNPSKVYGSLRNMASRGAERL | not soluble
MTADALVRAPAEPTHPIREWTTVFVGTGDEHLVVAEGPKHRDWRKIGNVFREPARTAVLGLIRTCIADRELKIETFEGKVADALGPVAAAHPILTPDKSVVVAVQIWSGDPKKNPPDRPNVGAWEWVLSSEDNPPPPQLQLDPGAIELIGMSTRHQDRSVFGPADLYTRSARLSDTLRHVRQIRDCQVKDRFDGTFTIRAEADVTRELRYAERCVEGPAGRRVRGICWDAGTDEALVHESMLDAWLSTMLASTSGMYIAVGDLSYQYPYWLKWVTEHVPGLGHGVSTGQTFALHEEDWPKIIEWVQQVRKGPVSGTVRARRGGGGWLKAEFRGFLLDPLVSDSIGVAVISPEIETIPDETS | not soluble
MKLMAQLGKLLKEQKYDRQLRLWGDHGQEALESAHVCLINATATGTEILKNLVLPGIGSFTIIDGNQVSGEDAGNNFFLQRSSIGKNRAEAAMEFLQELNSDVSGSFVEESPENLLDNDPSFFCRFTVVVATQLPESTSLRLADVLWNSQIPLLICRTYGLVGYMRIIIKEHPVIESHPDNALEDLRLDKPFPELREHFQSYDLDHMEKKDHSHTPWIVIIAKYLAQWYSETNGRIPKTYKEKEDFRDLIRQGILKNENGAPEDEENFEEAIKNVNTALNTTQIPSSIEDIFNDDRCINITKQTPSFWILARALKEFVAKEGQGNLPVRGTIPDMIADSGKYIKLQNVYREKAKKDAAAVGNHVAKLLQSIGQAPESISEKELKLLCSNSAFLRVVRCRSLAEEYGLDTINKDEIISSMDNPDNEIVLYLMLRAVDRFHKQQGRYPGVSNYQVEEDIGKLKSCLTGFLQEYGLSVMVKDDYVHEFCRYGAAEPHTIAAFLGGAAAQEVIKIITKQFVIFNNTYIYSGMSQTSATFQL | soluble
MAVQFEFYKNPVQGEEEGETSYHPRVVNFQHVTTQRLAVEIHSATTFGKAEVEAMLMELSRCMGNHLREGQRVHLDGVGYFQITLQATEPIHSMAAHADKVKFKSVSFLADRDLKGELIGMHAQRSKYKPHSATLSQEEIDKKLTGYFATHTVLTRSDMQSLCQFTHSMAARHIRRLKEEGSLQNIGIRTQPIYVPCPGHYGK | not soluble
MAHHHHHHMDYYRLLADIGHTYLQLIPSTAHVEKVTGLAARYCIFTITHTQMLLHCLMLWKEARLGDGGGFIDYAKVRNLKICSGAAEHTAQSNADAHSSNEGKQKWRTIDRTASLLFTLQLLEANCRYYCLVFLANYCALLLRSYSCLTDQRKVNRVHANVVEHLDMVSRLVLDLAEEYPNEYLSRLIMANLPKPSNFDRECLSSMGASSHMGSQKILSFGNDQHRHLYASGYPWSPTQSALIPLILARTVRLTVQENVSRHSQAQLRSPAERLSYHYTRWHFNSGLVIVPGCSLYMLKKSLPGFVPGKSTFAHYATMAEHEELHVPRAAADVHWQRGSAAVPVPEDGGGAAPGSHRNPRKSEDSADAEKREALTKKCEERLIKKRRHINTDLHLSDERTCVALCLEEACALALPSLLLSCVLQKATREPHFREFMNNAMNLVLGLYGPASSEWHMMASFLRKHLEG | not soluble
MAHHHHHHMTAAADFALPDLVLFLRLYDSANVEDGQLLVQVMNEIHRQLFALAETAADAAVARGGSSTPSMAGTTIGEHDLDAANRGVKGISPAPSASPLPLPAMLYTMSSLGIVEEAVLDVVTSSAVQDGARGRRGLLYSQLRLYSVADLLQLLVALHRFGHQQQPSTKAVTMALRASLYRTSTTASRFHRRARSLKRALAARPQTPSSGEGRADAAAADADTGGVAAVIAADEELSSLAFGLGCPLFLLLEALTATATTVHRRTDVVAFLSDLIAVTAVAELTTAVHESRGRRSPAGCEDLAREAQEFVFAVSHQLLRAAKLTECMELPQILLSDVFAWSTTLSGRGVFVDGGEDNAVPSDRVAYYDHVTADLIKANSAE | not soluble
MGSDKIHHHHHHMDISIGDDSNGAVISIVGSHLDKLNLNGTAILLERYDDSPTHFGSAFLFPYANRVRNGEFTLDGKRYFLPKDDENNSIHGLVLSKKFDLVEKIENSVTMRYIMADECYPSPIEIFITHTVSEGKYTCRVKASNRGLTRAPVSAGFHPYFLYNGRWAIKKPRDTWKLEYDGQFPTGKMDKFLFEEDSFMHEFDNQFFADEDIVVDMGSHMIQIERENMPFFVIYNGKYSGGKSVAIEPMMSAVDAFNNGIGLRIVNPGESIEFAYSVEIRE | not soluble
MGSDKIHHHHHHMSNSDPIERFFRSGLKLPHLRILVSLADLGQVTRVAAAFHVTQPAISKQIAEIEDALGVAVVNRVGNALELTGIGQVIVSCGREVLRHIELAKRDVSALASGTAGHVRVGAVVTIPEPLIANSVQLFIRRAPSASLSFAESTLDRLIRMMDDGELDIALGRNRIAGANSAQSTLKQEILHREPFVFVAGAHHPLGDPDRPTTWADLRGCRWITPMHGSPAYATLVEALAVHDLTPDPGAVESSSLALNVALIRSGDFVSILPMSVARPQVMRGNMRVLPLPPLQPLGEIVAYWRLGSTTPAAQLFNACLKEVSSDLLGERIEAG | not soluble
MGSDKIHHHHHHMSAEPIIQVENLSKMYRLGLKNEIHDSIAEAAVSWLKTPVKNYRNLKSLNTFGVPVDEDDPGVLWALRDVSFEVAEGEVLGIIGRNGAGKSTLLKVLSRITEPTRGRVIINGRVASLLEVGTGFHPDLTGRENVFMNGSILGMRKGEIAAKFDEIVDFAGLDRFIDTPIKRYSSGMVMRLAFSVAAHLEPEILIIDEVLAVGDAAFQKKCLDKMHKVASGGRTVLFVSHQLNSVSALCGRVMHMDSGRIIKNGDTRQVIDHYLTSAGFGVTTALHDRKDRCGAGHVRFVNSWIEDMQGNRLASAVSGEPVRIALEYQSHAEESFSDVKVYLRLYSMLNKPAGLFSNVYTEERIDISAGENGVLYCTVPRMMLNGGRYFFHLKLEAQGRQLDHIENAGYMEVEAGNVYANGKMPNDQWVYLHDYGWSGEPLHKG | not soluble
MVSYKLTYFNGRGAGEVSRQIFAYAGQQYEDNRVTQEQWPALKETCAAPFGQLPFLEVDGKKLAQSHAIARFLAREFKLNGKTAWEEAQVNSLADQYKDYSSEARPYFYAVMGFGPGDVETLKKDIFLPAFEKFYGFLVNFLKASGSGFLVGDSLTWIDLAIAQHSADLIAKGGDFSKFPELKAHAEKIQAIPQIKKWIETRPVTPF | soluble
MYHNNNYGYNNHRGGGGFRHNNYNNNNNNHHHHYNNLPRINETQVPQSKHTIFIRGLHGDISTEEIKEYIGEKVGKISFDFVKVAQDKSKIFVAVRFENRDEAKEFMETYSDREFMGCRCDLSWFRDIRRYCAYQRAKQVRSNSQRRRRRSDSQESSKRSASPPVRRGRSKSRSRSRSPSRSRSRSRSRSVSRSKSPASRNGRVSRHRSRSQNRSRSRSNTRSRSRSSGRSGSAHSRKSDDVDSFDDESFDEKSRVKDNEARQKRRRELSDDDRKDVRETQPKKSVKEELPQIPLPPKTEAAASPSPAPPTPKASKSASFIPPPTADDMELESPPHVSNNQYEYQQSNNTYNQIRTGASPVSVSYSVPMEVEATPKMIVRETPQPAQPPVQVNSYYTTTPIQQQQQQQQPIPPQLPTACAPVCKYLTKIFRVETRYHIPRGANFHVCVIRFSPPQPPPTTPQPAFVPRQIGRIEIVMPSSLPAPVVSAAAASASAAAHPVAMNGSAISGGSSMPDITMHPNTNKLFGHLKAFQSALLSTVKYEPPARKEEDEAGFSTLRLSSLATEDDSADEEKAMVRELKLAKLNDEQMMRFHIKKKQLESAFRNDCETYAVVTRALLAKDESLQFGLKMALLENMEDLYKKMMQRVDDQLDALLVMA | not soluble
MDYTIENNMIKVVISDHGAEIQSVKSAHTDEEFMWQANPEIWGRHAPVLFPIVGRLKNDEYTYKGKTYHLGQHGFARNADFEVENHTKESITFLLKDNEETRKVYPFKFEFRVNYNLMNNLLEENFSVVNKSDETMIFGVGGHPGFNLPTDHGENKEDFYFDMHPSVTRVRIPLKDASLDWNNRSLAPTDSLIALSDDLFKDDALIYELRGNDNKVSLRTDKNKFHVNVWTRDAPFVGIWSQYPKTDNYVCIEPWWGIADRDDADGDLEHKYGMNHLKPGKEFQAGFSMTYHSTTDEVKLEHHHHHH | soluble
SPPNLTPAQSNRVCNSLALLQCVASHSDTRMLFLKAHIPLYLYPFLNTTSKSRPFEYLRLTSLGVIGALVKVDDTEVISFLLSTEIIPLCLRTMEMGSELSKTVATFIVQKILLDDVGMDYICTTAERFFAVGRVLGNMVQSLVEQPSPRLLKHIIRCYLRLSDNPRACAALASCLPDSLRDGSFSNCLREDPTARRWLQQLVHNVGVGRVPTHQGGGFEHML | not soluble
MAHHHHHHMENHKDDAVLLKHGWCEMLKGGVIMDVKSVEQAKIAEEAGAIGVMVLENIPSELRNKEGVARSVDPSKVEEIKKCVSINVLAKVRIGHFVEAQILEELKIDMIDESEVLTIADEMHHIDKHKFKTPFVCGCTNLGEALRRISEGASMIRTKGEAGTGNIIEAIKHIRTVNNEIKYLCSLSDSEVYHFAKKINAPIDLVLLTKKLKRLPVVNFAAGGVATPADAAMCMQLGMDGVFVGSGIFESENPRKMAASIVSAVSNFNNPKILLDVSMNLGKAMCGSTRVSDKWKNKNEEHTKFLTPQ | not soluble
MLLSLYIPPGRPLSDVMTLLRQEYSITDNIKLKRTRQAVKRALSAAMDRLQMLTSTPPNGLVLFCGEDMSTGKFECFMFSPPEPIRVFYYRTDKRFITDFLEDMVEDNNAIGIIIVERDQATIGLLKGARLEVLKELEGFVPGKHKMGGQSQRRYERIIEQMVDEFFKKVGEEASNLLVPLAEKGVLKGVIVAGPGLAKQEFVEGNYLDYRLKKILAPELVDVAYQGLQGLKEAVMKAEKVVEAQMYRDAVNAMEEFKLHLAKGTGMIVYGEKDVEAALEMGAVKTLLIHESREDLEEWVEKAKSSGAQVIVVPESLAEAEWFLKTFGGLAGILRFRISTV | soluble
MGESIPLAAPVPVEQAVLETFFSHLGIFSYDKAKDNVEKEREADKSAGGSWLSLLAALAHLAAAEKVYHSLTYLGQKLGGQSFFSRKDSIRTIYTSLHNELKKVVTGRGALGGTAPHVEELLSHLSEQLCFFVQARMEIADFYEKMYTLSTQKFINAEELVGLLDAIMKKYSSRFHHPILSPLESSFQLEVDVLCHLLKAQAQVSEWKFLPSLVNLHSAHTKLQTWGQIFEKQRETKKHLFGGQSQKAVQPPHLFLWLMKLKNMLLAKFSFYFHEALSRQTTASEMKTLTAKANPDFFGKISSFIRKYDAANVSLIFDNRGSESSQGHGYHHPHSYREAPKGVDQYPAVVSLPSDRPVMHWPNVIMIMTDRTSDLNSLEKVVHFYDDKVQSTYFLTRPEPHFTIVIIFESKKSERDSHFISFLNEVSLALKNPKVFASLKPGSKGSCYQCNYFVAFCLDYSKLLLQRK | not soluble
AHHHHHHGSFKILRKERLAPGINLFEIESPRIAKHAKPGQFVMIRLHEKGERIPLTIADVDISKGSITIVAQEVGKTTRELGTYEAGDYILDVLGPLGKPSHIDYFGTVVMIGGGVGVAEIYPVAKAMKEKGNYVISILGFRTKDLVFWEDKLRSVSDEVIVTTNDGSYGMKGFTTHALQKLIEEGRKIDLVHAVGPAIMMKAVAELTKPYGIKTVASLNPIMVDGTGMCGACRVTVGGEVKFACVDGPEFDAHLVDWDQLMNRLAYYRDLEKISLEKWERERRMV | soluble
